Reference: US20050287542A1

Experiments:
[1] = biological target: GST-KIXY650A (Y650A variant of CBP KIX) (UniProt P45481); test: fluorescence polarization
CBP KIX variant I657A = CBP KIX variant I657A (UniProt P45481); test: fluorescence polarization
CBP KIX variant K606A = CBP KIX variant K606A (UniProt P45481); test: fluorescence polarization
CBP KIX variant L603A = CBP KIX variant L603A (UniProt P45481); test: fluorescence polarization
CBP KIX variant K662A = CBP KIX variant K662A (UniProt P45481); test: fluorescence polarization
CBP KIX variant E655A = CBP KIX variant E655A (UniProt P45481); test: fluorescence polarization
CBP KIX variant L599A = CBP KIX variant L599A (UniProt P45481); test: fluorescence polarization
CBP KIX variant Q661A = CBP KIX variant Q661A (UniProt P45481); test: fluorescence polarization
CBP KIX variant Y658A = CBP KIX variant Y658A (UniProt P45481); test: fluorescence polarization
[2] = biological target: CBP KIX variant LL652-3AA (UniProt P45481); test: fluorescence polarization
[3] = biological target: CBP KIX variant Y650A (Example 20) (UniProt P45481); test: fluorescence polarization
CBP KIX variant I660A = CBP KIX variant I660A (UniProt P45481); test: fluorescence polarization
CBP KIX variant Y658F = CBP KIX variant Y658F (UniProt P45481); test: fluorescence polarization
[4] = biological target: catalytic subunit of cAMP-dependent protein kinase (PKA); test: cell-based or functional assay
[5] = biological target: full-length p300 (exogenous, CMV expression vector); test: cell-based or functional assay
[6] = biological target: endogenous CBP/p300 in HEK293 cells; test: cell-based or functional assay
[7] = biological target: HisKIX (His-tagged CBP KIX domain) (UniProt P45481); test: fluorescence polarization at 325 µM HisKIX
[8] = biological target: HisKIX (His-tagged CBP KIX domain) (UniProt P45481); test: fluorescence polarization at 150 µM HisKIX

Chain of CBP KIX variant Y658A (P45481 586-665 Y658A limits assumed): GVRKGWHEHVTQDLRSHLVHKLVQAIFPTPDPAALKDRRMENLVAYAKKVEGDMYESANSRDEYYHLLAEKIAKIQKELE
Chain of CBP KIX variant I657A (P45481 586-665 I657A limits assumed): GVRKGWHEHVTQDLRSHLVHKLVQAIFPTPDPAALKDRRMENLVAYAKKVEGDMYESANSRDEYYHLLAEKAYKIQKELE
Chain of CBP KIX variant L599A (P45481 586-665 L599A limits assumed): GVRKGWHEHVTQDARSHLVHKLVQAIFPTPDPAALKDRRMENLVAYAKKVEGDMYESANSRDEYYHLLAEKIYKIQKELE
Chain of CBP KIX variant Y650A (Example 20) (P45481 586-665 Y650A limits assumed): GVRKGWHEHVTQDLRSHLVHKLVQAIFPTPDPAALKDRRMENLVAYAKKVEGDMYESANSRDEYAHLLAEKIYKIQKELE
Chain of CBP KIX variant K606A (P45481 586-665 K606A limits assumed): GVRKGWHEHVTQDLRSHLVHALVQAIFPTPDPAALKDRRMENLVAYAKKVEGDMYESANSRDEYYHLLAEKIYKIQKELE
Chain of CBP KIX variant Y658F (P45481 586-665 Y658F limits assumed): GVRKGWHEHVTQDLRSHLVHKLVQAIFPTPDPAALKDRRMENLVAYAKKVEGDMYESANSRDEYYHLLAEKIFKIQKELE
Chain of CBP KIX variant L603A (P45481 586-665 L603A limits assumed): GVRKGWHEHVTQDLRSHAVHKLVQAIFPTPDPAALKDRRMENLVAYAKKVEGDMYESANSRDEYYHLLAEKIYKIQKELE
Chain of CBP KIX variant Q661A (P45481 586-665 Q661A limits assumed): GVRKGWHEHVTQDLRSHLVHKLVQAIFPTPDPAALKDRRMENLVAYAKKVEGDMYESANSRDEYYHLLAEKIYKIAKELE
Chain of CBP KIX variant E655A (P45481 586-665 E655A limits assumed): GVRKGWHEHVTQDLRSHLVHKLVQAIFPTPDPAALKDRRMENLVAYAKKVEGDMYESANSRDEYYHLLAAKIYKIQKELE
Chain of CBP KIX variant LL652-3AA (P45481 other isoform, or with tags, fused parts or gaps mutant limits assumed): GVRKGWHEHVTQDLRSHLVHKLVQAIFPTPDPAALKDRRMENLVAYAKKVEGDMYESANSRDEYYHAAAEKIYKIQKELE
Chain of HisKIX (His-tagged CBP KIX domain) (P45481 586-672): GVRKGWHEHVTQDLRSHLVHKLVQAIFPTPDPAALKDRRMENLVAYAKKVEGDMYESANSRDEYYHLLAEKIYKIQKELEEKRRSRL
Chain of CBP KIX variant K662A (P45481 586-665 K662A limits assumed): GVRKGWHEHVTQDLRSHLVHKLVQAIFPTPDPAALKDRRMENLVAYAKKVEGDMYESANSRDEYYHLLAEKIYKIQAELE
Chain of CBP KIX variant I660A (P45481 586-665 I660A limits assumed): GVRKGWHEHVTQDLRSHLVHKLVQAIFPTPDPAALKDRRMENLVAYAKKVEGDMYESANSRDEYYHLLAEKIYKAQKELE
Chain of GST-KIXY650A (Y650A variant of CBP KIX) (P45481 586-665 Y650A limits assumed): as the sequence (P45481 586-665 Y650A limits assumed) above

Substance: KID-AB^P (full-length CREB KID domain, residues 119-148, phosphorylated), fluorescein-labelled (peptide)
- fold less stable than the wild type GST-KIX complex [1]: 15 fold
- Kd (CBP KIX variant I657A): 1900 nM
- ΔΔG against wild type CBP KIX (CBP KIX variant I657A): 0.9 kcal/mol
- Kd (CBP KIX variant K606A): 2300 nM
- ΔΔG against wild type CBP KIX (CBP KIX variant K606A): 1 kcal/mol
- Kd (CBP KIX variant L603A): 3400 nM
- ΔΔG against wild type CBP KIX (CBP KIX variant L603A): 1.2 kcal/mol
- Kd (CBP KIX variant K662A): 4800 nM
- ΔΔG against wild type CBP KIX (CBP KIX variant K662A): 1.5 kcal/mol
- Kd (CBP KIX variant E655A): 710 nM
- ΔΔG against wild type CBP KIX (CBP KIX variant E655A): 0.32 kcal/mol
- Kd (CBP KIX variant L599A): 1100 nM
- ΔΔG against wild type CBP KIX (CBP KIX variant L599A): 0.58 kcal/mol
- Kd (CBP KIX variant Q661A): 930 nM
- ΔΔG against wild type CBP KIX (CBP KIX variant Q661A): 0.48 kcal/mol
- Kd (CBP KIX variant Y658A): 142000 nM
- ΔΔG against wild type CBP KIX (CBP KIX variant Y658A): 3.5 kcal/mol
- Kd [2]: 2900 nM
- ΔΔG against wild type CBP KIX [2]: 1.2 kcal/mol
- Kd [3]: 9400 nM
- ΔΔG against wild type CBP KIX [3]: 1.8 kcal/mol
- Kd (CBP KIX variant I660A): 270 nM
- ΔΔG against wild type CBP KIX (CBP KIX variant I660A): -0.26 kcal/mol
- Kd (CBP KIX variant Y658F): 26000 nM
- ΔΔG against wild type CBP KIX (CBP KIX variant Y658F): 2.5 kcal/mol

Substance: PKI^A21C alkylated with bromoacetamide (peptide)
- IC50, inhibition of PKA phosphotransferase activity [4]: > 1000 nM

Substance: Gal4 DBD (residues 1-147) fusion of KID-AB (from UniProt P04386 1-147)
- fold activation of Gal4 luciferase reporter, with forskolin and exogenous p300 [5]: 20 fold
- fold activation of Gal4 luciferase reporter in HEK293 cells, with forskolin [6]: 7.5 fold

Substance: KID-B^U, fluorescein-labelled (peptide)
- change in polarization [7]: 76 mP

Substance: KID-AB^U, fluorescein-labelled (peptide)
- change in polarization [8]: 61 mP
